Results: patent WO2020135415A1 (dated 2020)

What was measured:
PD-L1 expressed by DC = assay: cell-based or functional assay
human PD-L1 protein = target: T1, human PD-L1 protein (human, UniProt Q9NZQ7 19-238, limits assumed); assay: binding to human PD-L1 protein; method not stated
T1 construct: also called hPD-L1; huPD-L1
T1 sequence (Q9NZQ7 19-238 limits assumed): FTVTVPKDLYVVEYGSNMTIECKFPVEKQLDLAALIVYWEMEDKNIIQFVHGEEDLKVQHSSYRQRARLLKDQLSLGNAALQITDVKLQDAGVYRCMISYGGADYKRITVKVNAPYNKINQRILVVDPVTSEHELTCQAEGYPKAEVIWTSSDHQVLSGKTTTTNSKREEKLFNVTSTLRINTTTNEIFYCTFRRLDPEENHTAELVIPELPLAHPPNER

PD-L1 expressed by DC, sequence (Q9NZQ7 whole entry): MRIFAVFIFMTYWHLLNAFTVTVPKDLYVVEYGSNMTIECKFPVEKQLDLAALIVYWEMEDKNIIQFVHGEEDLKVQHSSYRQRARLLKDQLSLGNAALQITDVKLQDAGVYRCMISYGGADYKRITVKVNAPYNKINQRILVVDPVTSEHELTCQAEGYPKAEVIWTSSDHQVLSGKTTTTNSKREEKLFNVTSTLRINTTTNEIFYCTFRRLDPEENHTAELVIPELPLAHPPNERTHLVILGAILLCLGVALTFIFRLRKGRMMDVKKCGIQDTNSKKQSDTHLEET

B1: hu5G11-hIgG1 (antibody, V domains shown)
VH: QITLKESGPTLVKPTQTLTLTCTVSGFSLSTYGVHWIRQPPGKALEWLGVIWRGVTTDYNAAFMSRLTITKDNSKNQVVLTMNNMDPVDTATYYCARLGFYAMDYWGQGTLVTVSS
VL: DIQMTQSPSSLSASVGDRVTITCKASQSVSNDVAWYQQKPGKAPKLLIYYAANRYTGVPDRFSGSGYGTDFTFTISSLQPEDIATYFCQQDYTSPYTFGQGTKLEIKR
PD-L1 expressed by DC
  secretion of IFN-γ in MLR of CD4+:DC cells, EC50: 0.035 µg/mL
Human PD-L1 protein
  EC50: 0.0213 µg/mL
